Measurements published in PMC11077089, “Molecular basis of A. thaliana KEOPS complex in biosynthesizing tRNA t6A”.
Positions count from the first letter of the chain named.

Columns and labels:
[1] = target: T1, KAE1 I17F;BUD32;CGI121;PCC1 (Arabidopsis thaliana;Arabidopsis …, UniProt O49653;Q94K14;Q6NMZ4;Q8GWD7 1-353;1-226;1-172;1-96, I17F|||); experiment: EMSA; 1:5 RNA:protein; MST: 20 mM PBS pH 7.5, 300 mM NaCl, 0.05% Tween 20, 25 C, 50 nM RNA; EMSA: 20 mM Tris-HCl pH 7.5, 300 mM NaCl, 5 mM b-mercaptoethanol, 20% glycerol, agarose gel in Tris-glycine pH 8.0 (8.5 for FAM-RNA), 4 C; details: protein: recombinant;recombinant;recombinant;recombinant; tags: ;none (6His on partner CGI121);6His (C-term);6His (C-term); chain copies: 2;2;2;2; label: 5' 6-FAM; tRNA cloverleaf
T1 sequence 1: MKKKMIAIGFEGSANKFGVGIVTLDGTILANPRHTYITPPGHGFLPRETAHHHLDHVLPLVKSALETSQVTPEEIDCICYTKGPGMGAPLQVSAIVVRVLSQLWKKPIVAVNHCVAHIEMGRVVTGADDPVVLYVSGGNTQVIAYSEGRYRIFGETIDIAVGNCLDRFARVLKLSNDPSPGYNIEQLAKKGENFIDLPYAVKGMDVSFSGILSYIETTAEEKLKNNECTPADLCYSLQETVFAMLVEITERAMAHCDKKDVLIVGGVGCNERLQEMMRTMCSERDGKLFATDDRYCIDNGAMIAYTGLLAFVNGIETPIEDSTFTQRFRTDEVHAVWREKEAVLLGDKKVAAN
T1 sequence 2: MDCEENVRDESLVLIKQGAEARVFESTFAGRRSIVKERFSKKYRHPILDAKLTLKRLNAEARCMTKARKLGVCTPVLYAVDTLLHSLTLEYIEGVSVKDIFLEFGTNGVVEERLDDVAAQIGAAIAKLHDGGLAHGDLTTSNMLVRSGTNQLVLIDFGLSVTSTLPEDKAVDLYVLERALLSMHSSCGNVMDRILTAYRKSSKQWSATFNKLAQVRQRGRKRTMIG
T1 sequence 3: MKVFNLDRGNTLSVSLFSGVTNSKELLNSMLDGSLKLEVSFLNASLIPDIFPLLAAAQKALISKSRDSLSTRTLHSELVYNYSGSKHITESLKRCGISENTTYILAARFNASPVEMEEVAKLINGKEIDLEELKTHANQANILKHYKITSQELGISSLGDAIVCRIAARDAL
T1 sequence 4: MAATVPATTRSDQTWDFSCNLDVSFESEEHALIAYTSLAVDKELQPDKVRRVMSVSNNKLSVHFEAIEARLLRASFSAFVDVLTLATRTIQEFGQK

[2] = target: T2, KAE1 D298R;BUD32;CGI121;PCC1 (Arabidopsis thaliana;Arabidopsis …, UniProt O49653;Q94K14;Q6NMZ4;Q8GWD7 1-353;1-226;1-172;1-96, D298R|||); experiment: as above; details: protein: recombinant;recombinant;recombinant;recombinant; tags: ;none (6His on partner CGI121);6His (C-term);6His (C-term); chain copies: 2;2;2;2; label: 5' 6-FAM; tRNA cloverleaf
T2 sequence 1: T1 sequence 1 with F17I, D298R
T2 sequence 2: T1 sequence 2
T2 sequence 3: T1 sequence 3
T2 sequence 4: T1 sequence 4

[3] = target: T3, KAE1;BUD32;CGI121;PCC1 R70D/R73D/A74E (Arabidopsis thaliana;Arabidopsis …, UniProt O49653;Q94K14;Q6NMZ4;Q8GWD7 1-353;1-226;1-172;1-96, |||R70D;R73D;A74E); experiment: MST; KEOPS monomer; MST: 20 mM PBS pH 7.5, 300 mM NaCl, 0.05% Tween 20, 25 C, 50 nM RNA; EMSA: 20 mM Tris-HCl pH 7.5, 300 mM NaCl, 5 mM b-mercaptoethanol, 20% glycerol, agarose gel in Tris-glycine pH 8.0 (8.5 for FAM-RNA), 4 C; details: protein: recombinant;recombinant;recombinant;recombinant; tags: none (6His on partner PCC1);none (6His on partner CGI121);6His (C-term);6His (C-term); chain copies: 2;2;2;2; label: 5' 6-FAM; tRNA cloverleaf
T3 sequence 1: T1 sequence 1 with F17I
T3 sequence 2: T1 sequence 2
T3 sequence 3: T1 sequence 3
T3 sequence 4: T1 sequence 4 with R70D, R73D, A74E

B1: 5'-6FAM-tRNAArgCCU (structured_RNA)
RNA: GCGCCUGUAGCUCAGUGGAUAGAGCGUCUGUUUCCUAAGCAGAAGGUCGUAGGUUCGACCCCUACCUGGCGCGCCA
[1]
  binding result: binds
[2]
  binding result: binds
[3]
  Kd: 74.4 ± 13.5 µM
